B1: Example 420 (peptide)
chain: YXQGTXTSDYXIXLDXKAQXAFIEYLLEGGPSSGEPPPE
modifications: synthetic construct; SITE 2: note = 2-Aminoisobutyric Acid; SITE 6: note = alpha-methyl-L-phenylalanine; SITE 11: note = alpha-methyl-L-serine; SITE 13: note = alpha-methyl-leucine; SITE 16: note = L-ornithine; SITE 17: note = Lysine is chemically modified through conjugation of the epsilon-amino gr
B2: Example 438 (peptide)
chain: YXQGTXTSDXXIXLDXKAQXXFIEXLSEGGPSSGEPPPE
modifications: synthetic construct; SITE 2: note = 2-Aminoisobutyric Acid; SITE 6: note = alpha-methyl-2-fluoro-L-phenylalanine; SITE 10: note = 3-(4-Pyridyl)-L-alanine; SITE 11: note = alpha-methyl-L-serine; SITE 13: note = alpha-methyl-leucine; SITE 16: note = L-ornithine; SITE 17: note = Lysine is chemically mo
B3: Example 439 (peptide)
chain: YXQGTXTSDXXIXLDXKAQXXFIEXLQEGGPSSGEPPPE
modifications: synthetic construct; SITE 2: note = 2-Aminoisobutyric Acid; SITE 6: note = alpha-methyl-2-fluoro-L-phenylalanine; SITE 10: note = 3-(4-Pyridyl)-L-alanine; SITE 11: note = alpha-methyl-L-serine; SITE 13: note = alpha-methyl-leucine; SITE 16: note = L-ornithine; SITE 17: note = Lysine is chemically mo
B4: Example 436 (peptide)
chain: YXQGTXTSDXXIXLDXKAQXSFIEXLIEGGPSSGEPPPE
modifications: synthetic construct; SITE 2: note = 2-Aminoisobutyric Acid; SITE 6: note = alpha-methyl-2-fluoro-L-phenylalanine; SITE 10: note = 3-(4-Pyridyl)-L-alanine; SITE 11: note = alpha-methyl-L-serine; SITE 13: note = alpha-methyl-leucine; SITE 16: note = L-ornithine; SITE 17: note = Lysine is chemically mo
B5: Example 437 (peptide)
chain: YXQGTXTSDXXIXLDXKAQXXFIEXLAEGGPSSGEPPPE
modifications: synthetic construct; SITE 2: note = 2-Aminoisobutyric Acid; SITE 6: note = alpha-methyl-2-fluoro-L-phenylalanine; SITE 10: note = 3-(4-Pyridyl)-L-alanine; SITE 11: note = alpha-methyl-L-serine; SITE 13: note = alpha-methyl-leucine; SITE 16: note = L-ornithine; SITE 17: note = Lysine is chemically mo
B6: Example 429 (peptide)
chain: YXQGTXTSDXXIXLDXKAQXXFIEXLIEGGPSSGAPEPSEG
modifications: synthetic construct; SITE 2: note = 2-Aminoisobutyric Acid; SITE 6: note = alpha-methyl-2-fluoro-L-phenylalanine; SITE 10: note = 3-(4-Pyridyl)-L-alanine; SITE 11: note = alpha-methyl-L-serine; SITE 13: note = alpha-methyl-leucine; SITE 16: note = L-ornithine; SITE 17: note = Lysine is chemically mo
B7: Example 39 (peptide)
chain: YXQGTFTSDFSKXLDKKAQXAFIQWLLEGGPSSGAPPPSEG
modifications: Lys acylated; non-natural residues; C-amide; synthetic construct; SITE 2: note = 2-Aminoisobutyric Acid; SITE 13: note = alpha-methyl-leucine; SITE 17: note = Lysine is chemically modified through conjugation of the epsilon-amino group of the Lysine side chain with (2-[2-(2-Amino-ethoxy)-ethoxy]-acetyl)-(gamma-Glu)-CO-(CH2) 18-CO2H; SITE 20: n
B8: Example 40 (peptide)
chain: YXQGTFTSDFSKXLDKKAQXAFIEWLIEGGPSSGAPPPSEG
modifications: Aib, αMeL; lysine acylated; C-terminal amide; synthetic construct; SITE 2: note = 2-Aminoisobutyric Acid; SITE 13: note = alpha-methyl-leucine; SITE 17: note = Lysine is chemically modified through conjugation of the epsilon-amino group of the Lysine side chain with (2-[2-(2-Amino-ethoxy)-ethoxy]-acetyl)-(gamma-Glu)-CO-(CH2) 18-CO2H; SITE 20: n
B9: Example 417 (peptide)
chain: YXQGTXTSDYSIXLDKKAQXAFIEYLLETGPSSGAPPPSEG
modifications: synthetic construct; SITE 2: note = 2-Aminoisobutyric Acid; SITE 6: note = alpha-methyl-2-fluoro-L-phenylalanine; SITE 13: note = alpha-methyl-leucine; SITE 17: note = Lysine is chemically modified through conjugation of the epsilon-amino group of the Lysine side chain with (2-[2-(2-Amino-ethoxy)-et)
B10: Example 435 (peptide)
chain: YXQGTXTSDYSILLDKKAQXAFIEYLEEGGPSSGAPPPSGE
modifications: synthetic construct; SITE 2: note = 2-Aminoisobutyric Acid; SITE 6: note = alpha-methyl-2-fluoro-L-phenylalanine; SITE 17: note = Lysine is chemically modified through conjugation of the epsilon-amino group of the Lysine side chain with (gamma-Glu)2-CO-(CH2)16-CO2H; SITE 20: note = 2-Aminoisobutyric
B11: Example 431 (peptide)
chain: YXQGTXTSDYSIXLDKKAQXAFIEYLEEGGPSSGAPPPSEG
modifications: synthetic construct; SITE 2: note = 2-Aminoisobutyric Acid; SITE 6: note = alpha-methyl-2-fluoro-L-phenylalanine; SITE 13: note = alpha-methyl-leucine; SITE 17: note = Lysine is chemically modified through conjugation of the epsilon-amino group of the Lysine side chain with (2-[2-(2-Amino-ethoxy)-et)
B12: Example 434 (peptide)
chain: YXQGTXTSDYSILLDKKAQXAFIEYLEEGGPSSGAPPPSEG
modifications: synthetic construct; SITE 2: note = 2-Aminoisobutyric Acid; SITE 6: note = alpha-methyl-2-fluoro-L-phenylalanine; SITE 17: note = Lysine is chemically modified through conjugation of the epsilon-amino group of the Lysine side chain with (gamma-Glu)2-CO-(CH2)16-CO2H; SITE 20: note = 2-Aminoisobutyric
B13: Example 414 (peptide)
chain: YXQGTXTSDYSILLDXKAQXAFIEYLEEGGPSSGAPPPS
modifications: synthetic construct; SITE 2: note = 2-Aminoisobutyric Acid; SITE 6: note = alpha-methyl-2-fluoro-L-phenylalanine; SITE 16: note = L-ornithine; SITE 17: note = Lysine is chemically modified through conjugation of the epsilon-amino group of the Lysine side chain with (gamma-Glu)2-CO-(CH2)16-CO2H; SITE

Legend:
Test in all cases: cell-based or functional assay
[1] = biological target: hGLP-1R (Homo sapiens, UniProt P43220)
Chain of hGLP-1R (P43220 24-463): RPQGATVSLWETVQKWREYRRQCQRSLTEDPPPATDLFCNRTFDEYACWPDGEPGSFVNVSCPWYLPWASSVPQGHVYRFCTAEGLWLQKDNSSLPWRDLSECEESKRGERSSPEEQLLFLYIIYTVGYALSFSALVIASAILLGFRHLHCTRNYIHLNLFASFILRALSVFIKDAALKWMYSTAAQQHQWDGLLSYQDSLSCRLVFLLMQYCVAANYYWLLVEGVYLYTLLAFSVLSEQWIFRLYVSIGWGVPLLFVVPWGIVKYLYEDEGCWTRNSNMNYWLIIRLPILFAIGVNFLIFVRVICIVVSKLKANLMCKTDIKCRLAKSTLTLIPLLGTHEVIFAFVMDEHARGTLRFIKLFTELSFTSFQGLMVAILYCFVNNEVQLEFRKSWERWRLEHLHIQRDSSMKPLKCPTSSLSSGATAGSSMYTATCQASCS

[2] = biological target: T1, human GIP receptor (human) (UniProt P48546)
T1 sequence (looked up): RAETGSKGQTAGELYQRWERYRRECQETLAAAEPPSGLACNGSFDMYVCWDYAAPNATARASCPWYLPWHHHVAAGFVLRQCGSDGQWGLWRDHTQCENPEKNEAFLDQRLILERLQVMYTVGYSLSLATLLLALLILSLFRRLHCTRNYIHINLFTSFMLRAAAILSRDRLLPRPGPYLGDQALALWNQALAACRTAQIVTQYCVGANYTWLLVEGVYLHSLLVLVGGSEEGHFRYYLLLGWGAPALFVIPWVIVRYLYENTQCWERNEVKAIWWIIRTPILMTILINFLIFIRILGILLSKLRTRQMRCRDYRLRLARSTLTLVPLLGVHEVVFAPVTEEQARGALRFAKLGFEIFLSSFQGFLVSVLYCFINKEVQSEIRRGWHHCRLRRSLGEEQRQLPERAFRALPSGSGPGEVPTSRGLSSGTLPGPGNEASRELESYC

[3] = biological target: human glucagon receptor (human) (UniProt P47871)
Chain of human glucagon receptor (human) (P47871 26-477): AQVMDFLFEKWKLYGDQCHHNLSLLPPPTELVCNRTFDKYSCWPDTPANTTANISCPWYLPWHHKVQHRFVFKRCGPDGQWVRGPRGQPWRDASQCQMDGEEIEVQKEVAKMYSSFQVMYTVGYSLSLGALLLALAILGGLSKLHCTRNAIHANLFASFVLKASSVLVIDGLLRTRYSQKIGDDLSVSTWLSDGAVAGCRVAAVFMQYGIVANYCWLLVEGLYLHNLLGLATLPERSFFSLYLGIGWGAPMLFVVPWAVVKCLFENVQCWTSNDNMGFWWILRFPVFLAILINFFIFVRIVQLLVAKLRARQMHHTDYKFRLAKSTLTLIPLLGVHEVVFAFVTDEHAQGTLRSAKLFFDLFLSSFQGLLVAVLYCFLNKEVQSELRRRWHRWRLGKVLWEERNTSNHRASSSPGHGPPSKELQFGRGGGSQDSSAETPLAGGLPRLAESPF

| Binder | Relative cAMP EC50 [1] [nM] | cAMP Rel EC50, nM (1% HSA) [1] [nM] | Relative cAMP EC50 [2] [nM] | cAMP Rel EC50, nM (1% HSA) [2] [nM] | Relative cAMP EC50 [3] [nM] | cAMP Rel EC50, nM (1% HSA) [3] [nM] | cAMP Rel EC50 (in the presence of 1% HSA) [1] [nM] | cAMP Rel EC50 (in the presence of 1% HSA) [2] [nM] | cAMP Rel EC50 (in the presence of 1% HSA) [3] [nM] |
| --- | --- | --- | --- | --- | --- | --- | --- | --- | --- |
| B1 | 0.205 | 31.3 | 0.0131 | 2.61 | 2.49 | 433 | – | – | – |
| B2 | 0.815 | 41.1 | 0.225 | 53.8 | 3.62 | 431 | – | – | – |
| B3 | 0.293 | 15.1 | 0.0634 | 14.6 | 4.38 | 165 | – | – | – |
| B4 | 0.173 | 11.7 | 0.0294 | 1.18 | 2.27 | 182 | – | – | – |
| B5 | 0.421 | 26.9 | 0.0872 | 16.9 | 1.76 | 188 | – | – | – |
| B6 | 0.178 | 12.1 | 0.0142 | 1.89 | 1.19 | 138 | – | – | – |
| B7 | 2.13 | – | 0.299 | – | 10.1 | – | 260 | 30.5 | 1090 |
| B8 | 0.693 | – | 0.139 | – | 12.3 | – | 138 | 76.7 | 2750 |
| B9 | 0.328 | 67 | 0.0144 | 4.46 | 2.83 | 386 | – | – | – |
| B10 | 0.311 | 33.6 | 0.0239 | 10.3 | 3.01 | 334 | – | – | – |
| B11 | 0.392 | 35.2 | 0.0157 | 3.73 | 3.32 | 352 | – | – | – |
| B12 | 0.236 | 35 | 0.0226 | 10.6 | 2.84 | 525 | – | – | – |
| B13 | 0.176 | 32.8 | 0.0303 | 14.9 | 4.56 | 487 | – | – | – |

— patent publication US20240270821A1, “GIP/GLP1/GCG TRI-RECEPTOR AGONISTS AND USES THEREOF” (priority 2023, published 2024)
